Source: IntAct's records for PubMed 17024177

Key:
sp1_human SP1 = sp1_human SP1 (UniProt P08047)
pdk1_human PDK1 = pdk1_human PDK1 (UniProt Q15118)
pdk1_human PDK1, sequence (Q15118 whole entry, looked up): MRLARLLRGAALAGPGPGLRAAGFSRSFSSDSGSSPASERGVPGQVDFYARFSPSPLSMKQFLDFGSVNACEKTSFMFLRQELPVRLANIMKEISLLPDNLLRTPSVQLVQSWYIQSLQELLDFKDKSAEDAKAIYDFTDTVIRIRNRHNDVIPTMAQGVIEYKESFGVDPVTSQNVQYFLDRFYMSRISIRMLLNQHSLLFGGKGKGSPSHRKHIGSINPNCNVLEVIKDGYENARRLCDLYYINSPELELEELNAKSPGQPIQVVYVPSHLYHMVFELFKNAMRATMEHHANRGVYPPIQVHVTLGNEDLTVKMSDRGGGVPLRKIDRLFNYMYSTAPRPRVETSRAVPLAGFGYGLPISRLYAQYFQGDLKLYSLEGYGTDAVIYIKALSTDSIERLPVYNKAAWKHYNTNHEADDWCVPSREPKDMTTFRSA

Endothelial PAS domain-containing protein 1 (Homo sapiens), Q99814 T324V, sequence (Q99814 whole entry T324V, the tested form may be a part): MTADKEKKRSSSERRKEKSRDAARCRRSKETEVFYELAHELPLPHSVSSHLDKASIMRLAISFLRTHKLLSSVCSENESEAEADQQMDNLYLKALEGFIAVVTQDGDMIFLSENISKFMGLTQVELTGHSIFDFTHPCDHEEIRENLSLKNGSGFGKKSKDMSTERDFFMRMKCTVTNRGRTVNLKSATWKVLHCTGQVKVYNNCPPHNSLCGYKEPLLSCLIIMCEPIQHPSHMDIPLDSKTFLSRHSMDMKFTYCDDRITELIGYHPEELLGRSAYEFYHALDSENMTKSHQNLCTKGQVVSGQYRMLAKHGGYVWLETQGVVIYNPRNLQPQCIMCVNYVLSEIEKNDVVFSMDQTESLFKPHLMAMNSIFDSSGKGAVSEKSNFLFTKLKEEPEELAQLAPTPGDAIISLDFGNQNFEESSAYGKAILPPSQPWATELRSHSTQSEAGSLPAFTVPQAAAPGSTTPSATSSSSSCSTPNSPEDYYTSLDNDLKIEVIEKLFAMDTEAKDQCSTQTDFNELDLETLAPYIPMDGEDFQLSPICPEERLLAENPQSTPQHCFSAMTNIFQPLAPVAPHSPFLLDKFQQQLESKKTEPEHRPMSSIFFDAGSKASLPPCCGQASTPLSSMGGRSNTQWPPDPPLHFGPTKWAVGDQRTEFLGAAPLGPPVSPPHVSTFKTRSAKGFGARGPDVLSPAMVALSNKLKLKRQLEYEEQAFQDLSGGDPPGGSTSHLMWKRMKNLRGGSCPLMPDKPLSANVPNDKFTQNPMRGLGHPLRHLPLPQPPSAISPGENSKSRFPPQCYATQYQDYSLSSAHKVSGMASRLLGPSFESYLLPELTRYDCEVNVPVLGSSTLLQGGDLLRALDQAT
Endothelial PAS domain-containing protein 1 (Homo sapiens), Q99814 P329T, sequence (Q99814 whole entry P329T, the tested form may be a part): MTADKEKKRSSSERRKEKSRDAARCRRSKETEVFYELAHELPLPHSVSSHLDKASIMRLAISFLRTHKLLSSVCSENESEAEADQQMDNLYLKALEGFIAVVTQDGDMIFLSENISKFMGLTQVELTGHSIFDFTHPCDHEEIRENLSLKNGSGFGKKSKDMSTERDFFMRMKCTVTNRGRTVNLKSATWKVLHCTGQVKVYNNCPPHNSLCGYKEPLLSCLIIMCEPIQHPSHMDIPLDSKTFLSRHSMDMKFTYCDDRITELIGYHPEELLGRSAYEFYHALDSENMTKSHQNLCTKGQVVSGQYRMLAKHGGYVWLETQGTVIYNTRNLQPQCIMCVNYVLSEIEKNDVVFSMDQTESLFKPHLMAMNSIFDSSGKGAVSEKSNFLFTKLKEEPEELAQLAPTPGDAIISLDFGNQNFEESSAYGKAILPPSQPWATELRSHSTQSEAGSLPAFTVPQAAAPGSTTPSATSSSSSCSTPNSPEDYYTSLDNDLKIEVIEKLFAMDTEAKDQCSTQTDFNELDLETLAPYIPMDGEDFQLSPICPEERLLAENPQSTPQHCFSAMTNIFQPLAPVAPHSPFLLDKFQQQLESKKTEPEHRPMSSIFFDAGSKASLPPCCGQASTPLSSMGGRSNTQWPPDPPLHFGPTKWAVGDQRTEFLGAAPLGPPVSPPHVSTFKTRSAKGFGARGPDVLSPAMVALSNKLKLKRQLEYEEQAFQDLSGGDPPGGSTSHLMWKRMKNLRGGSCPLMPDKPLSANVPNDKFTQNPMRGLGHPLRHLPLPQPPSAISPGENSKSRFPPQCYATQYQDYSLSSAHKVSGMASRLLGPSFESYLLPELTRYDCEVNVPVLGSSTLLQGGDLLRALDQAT
sp1_human SP1, sequence (P08047 whole entry): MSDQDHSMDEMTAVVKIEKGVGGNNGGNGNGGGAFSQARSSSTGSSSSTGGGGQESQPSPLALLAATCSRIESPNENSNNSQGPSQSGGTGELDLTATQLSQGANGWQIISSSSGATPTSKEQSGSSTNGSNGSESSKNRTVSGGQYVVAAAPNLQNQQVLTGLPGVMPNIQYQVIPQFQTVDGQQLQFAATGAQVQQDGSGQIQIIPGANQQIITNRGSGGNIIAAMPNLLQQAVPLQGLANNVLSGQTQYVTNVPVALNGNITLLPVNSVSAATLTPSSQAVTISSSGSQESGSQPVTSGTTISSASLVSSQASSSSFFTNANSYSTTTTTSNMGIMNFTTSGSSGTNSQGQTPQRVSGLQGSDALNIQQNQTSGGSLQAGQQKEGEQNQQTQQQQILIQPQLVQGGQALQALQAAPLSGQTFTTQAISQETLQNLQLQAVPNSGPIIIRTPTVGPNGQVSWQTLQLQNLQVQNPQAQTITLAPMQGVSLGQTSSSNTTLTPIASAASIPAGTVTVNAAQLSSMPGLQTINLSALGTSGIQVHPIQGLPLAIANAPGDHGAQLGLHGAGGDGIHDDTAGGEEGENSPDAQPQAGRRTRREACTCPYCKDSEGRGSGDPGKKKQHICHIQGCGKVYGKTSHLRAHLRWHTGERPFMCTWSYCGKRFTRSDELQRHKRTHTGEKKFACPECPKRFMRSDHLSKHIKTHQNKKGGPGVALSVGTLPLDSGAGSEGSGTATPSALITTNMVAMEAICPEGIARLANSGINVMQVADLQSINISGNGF

**Q.** For “Endothelial PAS domain-containing protein 1 (Homo sapiens), Q99814 P329T”, which “effect of a mutation on the interaction” value (sp1_human SP1) is on record?
**A.** increasing interaction

**Q.** Which “effect of a mutation on the interaction” value (pdk1_human PDK1) does the source give for “Endothelial PAS domain-containing protein 1 (Homo sapiens), Q99814 T324V” here?
**A.** disrupting interaction
